These results are taken from publication PMC8554075 (Immunity, 2021).

Substitutions are numbered along the chain they refer to.

To fix the notation:
B1: AB-2445, expressed as human IgG1 (antibody, V domains shown)
VH: QVQLVESGGGVVQPGRSLRLSCAASGFTFSSYGMHWVRQAPGKGLEWVAVIWYDGSNKYYADSVKGRFTISRDNSKNTLYLQMNSLRAEDTAVYYCARDDYYGSGSYDYYGMDVWGQGTTVTVSS
VL: DIQMTQSPSSLSASVGDRITITCRASQGIRNDLDWYQQKPGKAPKRLIYAASSLQSGVPSRFSGSGSGTEFTLTISSLQPEDFATYYCLQHNSYPPYTFGQGTKLEIK
B2: AB-1987, expressed as human IgG1 (antibody, V domains shown)
VH: QVQLVESGGGVVQPGRSLRLSCAASGFTFSSYGMHWVRQAPGKGLEWAAVIWYDGSNKYYADSVKGRFTISRDNSKNTLYLQMNSLRAEDTAVYYCARESSGGFDYWGQGTLVTVSS
VL: NIQMTQSPSAMSASVGDRVTITCRARQGISNFLAWFQQKPGKVPKHLVYAASSLRSGVPSRFSGSGSGTEFTLTISSLQPEDFATYYCLQHNNYPYTFGQGTKLEIK
B3: AB-2126, expressed as human IgG1 (antibody, V domains shown)
VH: B2 VH with M34I, A48V, S100T, S101L, G102D, F104M, Y106V, L112T
VL: B2 VL with F32Y, V48I, R55L, S76R, N93S
B4: AB-3467, expressed as human IgG1 (antibody, V domains shown)
VH: QVQLQESGPGLVKPSETLSLTCTVSGGSISSYHWNWIRQPPGKGLEWIGYIYYSGNTNYNPSLKSRVSISTDTSKNQFSLKLSSVTAADTAVYYCVREMRRGYSGYDYWDLYAFDIWGQGTMVTVSS
VL: DIQLTQSPSFLSASVGDRVTITCRASQGISSYLAWYQQKPGKAPNLLIYAASTLQSGVPSRFSGSGSGTEFTLTISSLQPEDFATYYCQQLNSYPHTFGQGTKLEIK
B5: AB-4689, expressed as human IgG1 (antibody, V domains shown)
VH: QVQLVQSGAEVKKPGASVKVSCKASGYTFSSYGISWVRQAPGQGLEWMGWISAYNGNTYYAQKLQGRVTMTTDTSTSTAYMELRSLRSDDTAVYYCAREFGRLIVHFDYWGQGTLVTVSS
VL: EIVLTQSPDFQSVTPKEKVTITCRASQSIGSSLSWYQQKPDQSPKLLIKCASQSISGVPSRFSGSGSGTDFTLTINSLEAEDAAAYYCHQSSSLPYTFGQGTKLEIK
B6: AB-3623, expressed as human IgG1 (antibody, V domains shown)
VH: B4 VH with T23A, H33Y, K43T, N56R, S68T, T71V, V96A, Y108D
VL: B4 VL with A13T, V15I
B7: AB-4873, expressed as human IgG1 (antibody, V domains shown)
VH: QVQLVQSGAEVKKPGASVKVSCKASGYTFTSYYMHWVRQAPGQGLEWMGIINPSAGTTNYAQKFQGRVTMTRDTSTSTVYMELSSLRPEDTAVYYCARENYYGWGSYPFDYWGQGTLVTVSS
VL: B4 VL with I2V, N45K, S65T, H96Y
B8: AB-3545 (antibody, V domains shown)
VH: B4 VH with T23A, S31N, N56R, S62T, S68N, T71V, V96A, Y108D
VL: B4 VL with A13T, S14Y, S31T, N45K, S52F
B9: 3475 (antibody, V domains shown)
VH: B4 VH with G27D, N56S, S68T, T71V, D72H, K81R, V96A, R97K
VL: B4 VL with I21V, N45K
B10: 3490 (antibody, V domains shown)
VH: B4 VH with T23A, H33Y, N35S, N56R, S68T, T71V, V96A, Y108D
VL: DIQLTQSPSFLSTSVGDRVTITCRASQGISSYLAWYQQKPGKAPKLLIYAASTLQSGVPSRFSGSGSGTEFTLTISSLQPEDFATYYCQQFNSYPHTFGQGTKLEI
B11: 3573 (antibody, V domains shown)
VH: B4 VH with Q3L, T23A, H33Y, N35S, N56R, P61S, S68T, T71V, V96A, Y108D
VL: B4 VL with A13T, N45K, E70D
B12: AB-3571 (antibody, V domains shown)
VH: B4 VH with T23A, N56R, S62T, S68N, T71V, V96A
VL: B4 VL with A13T, G28D, S31T, N45K, A84V
B13: 3581 (antibody, V domains shown)
VH: QVQLQESGPGLVKPSETLSLTCTVSGGSISTYYWSWTRQPPGKGLEWIGNIYYSGSTIYNPSLKSRVTISVDTSKNQFSLKLTSVTAADTAVYYCAREMRRGYSGYDYWDLYAFDIWGQGTMVTVSS
VL: B4 VL with Q6P, K39T, N45K
B14: 3513 (antibody, V domains shown)
VH: B13 VH with S25T, S30N, T31N, Y33F, T37I, S56N, I69L, V71I, K81R, I116V
VL: B4 VL with G16Q, G28D, N45K
B15: 3606 (antibody, V domains shown)
VH: B4 VH with T23A, H33Y, N35S, N56R, P61S, S68T, T71V, V96A, Y108D
VL: B4 VL with A13T, N45K, E70D
B16: AB-3492 (antibody, V domains shown)
VH: B4 VH with T23A, H33Y, N56R, S68T, T71V, V96A, Y108D
VL: B4 VL with A13T, N45K
B17: 3636 (antibody, V domains shown)
VH: B4 VH with N56S, T71V, V96A
VL: B4 VL with G16R, N45K, S93N
B18: 3476 (antibody, V domains shown)
VH: B4 VH with T23A, H33Y, N35S, N56R, S68T, T71V, V96A, Y108D
VL: B4 VL with A13T, V15I
B19: 3577 (antibody, V domains shown)
VH: B4 VH with T71A, V96A
VL: B4 VL with N45K, A50T
B20: 3521 (antibody, V domains shown)
VH: B4 VH with N35S, N56S, N58I, T71V, K75Q, V96A, R100P
VL: B4 VL with G16R, N45K, S93N
B21: 3881 (antibody, V domains shown)
VH: B13 VH with E6G, T31S, S35T, T37I, N50Y, S56I, I58T, V67I, T83R, A113P
VL: B4 VL with N45K, A50S, R61K
B22: 3517 (antibody, V domains shown)
VH: B4 VH with N56S, T71V, V96A
VL: B4 VL with G16R, G28D, N45K, S93N
B23: 3645 (antibody, V domains shown)
VH: B4 VH with T23A, H33Y, N35S, N56R, T57I, S68T, T71V, V96A, Y108D
VL: B4 VL with A13T, N45K

One experiment concerns the target T1, SARS-CoV-2 receptor-binding domain (SARS-CoV-2, UniProt P0DTC2). The experiment in a line: cell-based or functional assay.
B1: the “neutralization of live CoV2 virus, Vero E6 cells (blocks RBD-ACE2)” value (“neutralization of live CoV2 virus” below) was 0.37 µg/mL.

As for B2, the “neutralization of live CoV2 virus” value is 0.054 µg/mL.

Turning to B3, the “neutralization of live CoV2 virus” value came out at 0.106 µg/mL.

As to B4, the “neutralization of live CoV2 virus” value was 0.179 µg/mL.

For another experiment, the target named is T1, SARS-CoV-2 receptor-binding domain. The experiment in a line: BLI. A general note: Biolayer interferometry detects binding as a change in optical thickness at a sensor tip.
For the molecule B5, binding was put at a Kd of 0.24 nM.

For the molecule B6, the Kd is 2.3 nM.

As for B7, the Kd is 4.1 nM.

B4: the Kd was 4.1 nM.

Another experiment deals with RaTG13 receptor-binding domain (Bat coronavirus RaTG13, UniProt A0ABF7PLN6).
Experiment: not given
Regarding B8, the binding result is listed as “binds”.

On to B9, for which the binding result is “binds”.

For the molecule B10, the binding result is listed as “binds”.

Turning to B11, the binding result was “binds”.

For the molecule B12, the binding result was “binds”.

Consider B13, for which the binding result is “binds”.

For B14, the binding result was “binds”.

In the case of B15, the binding result was “binds”.

B16: the binding result was “binds”.

Consider B17, for which the binding result is on record as “binds”.

As for B18, the binding result is recorded as “binds”.

B19: the binding result is reported as “binds”.

On to B20, for which the binding result was “binds”.

In the case of B21, the binding result is “binds”.

In the case of B22, the binding result is “binds”.

For the molecule B23, the binding result is on record as “binds”.

The target of another experiment is T1, SARS-CoV-2 receptor-binding domain.
Experiment: not given
For the molecule B8, the binding result was “binds”.

B9: the binding result is on record as “binds”.

As for B10, the binding result is reported as “binds”.

On to B11, for which the binding result is reported as “binds”.

B12: the binding result is “binds”.

As to B13, the binding result was “binds”.

In the case of B14, the binding result is given as “binds”.

Consider B15, for which the binding result is “binds”.

B16: the binding result is recorded as “binds”.

In the case of B17, the binding result was “binds”.

Regarding B18, the binding result is recorded as “binds”.

Consider B19, for which the binding result is listed as “binds”.

With B20, the binding result is given as “binds”.

With B21, the binding result is “binds”.

For the molecule B22, the binding result is “binds”.

Take B23: the binding result is given as “binds”.

In the next experiment the target is SARS-CoV-1 receptor-binding domain (SARS-CoV (SARS-CoV-1), isolate not …, UniProt P59594).
Experiment: not given
On to B8, for which the binding result is recorded as “binds”.

Take B9: the binding result is given as “binds”.

As to B10, the binding result is given as “binds”.

For the molecule B11, the binding result is recorded as “binds”.

Turning to B12, the binding result was “binds”.

Regarding B13, the binding result is “binds”.

On to B14, for which the binding result is reported as “binds”.

Turning to B15, the binding result was “binds”.

With B16, the binding result is “binds”.

With B17, the binding result is recorded as “binds”.

On to B18, for which the binding result was “binds”.

Consider B19, for which the binding result is recorded as “binds”.

As to B20, the binding result is listed as “binds”.

Regarding B21, the binding result is reported as “binds”.

On to B22, for which the binding result is given as “binds”.

In the case of B23, the binding result is reported as “binds”.

The term Kd denotes the concentration at which binding is half-saturated. Read a low Kd as a tighter complex.
